Experimental data: patent publication US20160039903A1 (Stanford University, published 2016)
Numbering of substitutions follows the chain as printed. Read-outs that look alike come from different tables or passages of the source.

T1: human PD-L2 displayed on yeast (residues 20-123) (human; S. cerevisiae, UniProt Q9BQ51 20-123)
T1 construct: also called yeast displaying hPD-L2; ectodomain of hPD-L2; not shown: Aga2 of S. cerevisiae (pYAL vector); linker and tag between not g
T1 sequence: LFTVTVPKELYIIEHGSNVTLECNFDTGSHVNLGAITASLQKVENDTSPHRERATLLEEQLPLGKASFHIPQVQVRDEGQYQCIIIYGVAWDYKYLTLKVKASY

B1: wild-type human PD-1 IgV domain (residues 26-147), native PD-1 mimic polypeptide (receptor)
chain: DSPDRPWNPPTFSPALLVVTEGDNATFTCSFSNTSESFVLNWYRMSPSNQTDKLAAFPEDRSQPGQDCRFRVTQLPNGRDFHMSVVRARRNDSGTYLCGAISLAPKAQIKESLRAELRVTERHHHHHHHH
notes: Soluble monomer secreted from High Five insect cells; also called wild-type hPD-1; WT PD-1 monomer
B2: G2 4-1 (Generation 2, clone 4-1) (designed binder)
chain: DSPDRPWNPPTFSPALLVVTEGDNATFTCSFSNTSESFHVVWHRESPSGQTDTLAAFPEDRSQPGPDARFRVTQLPNGRDFHLSVVRARRNDSGTYVCGAISLAPKIQIKESLRAELRVTERHHHHHHHH
B3: G2 4-2 (designed binder)
chain: B2 chain with V40I, V41I, P66Q, A100V
B4: G1 4-1 (designed binder)
PD-1 variant IgV domain: DSPDRPWNPPTFSPALLVVTEGDNATFTCSFSNTSESFRLVWHRESPGYETDTLASFPEDRSTPLPDCRFRVTQLPNGRDFHMSVVRARRNDSGTYVCGAIAFHPVIQIKESLRAELRVTER
notes: also called Generation 1, clone 4-1
B5: G1 4-4 (designed binder)
PD-1 variant IgV domain: DSPDRPWNPPTFSPALLVVTEGDNATFTCSFSNTSESFRLVWHRESPNNHAYTLALFPEDRSLPFPDCRFRVTQLPNGRDFHMSVVRARRNDSGTYICGAITFDPRIQIKESLRAELRVTER
notes: also called Generation 1, clone 4-4
B6: G2 4-12 (designed binder)
PD-1 variant IgV domain: DSPDRPWNPPTFSPALLVVTEGDNATFTCSFSNTSESFHVVWHYESPSGQTDTLAAFPEDRSQPGQDARFRVTQLPNGRDFHLSVVRARRNDSGTYVCGIISLAPKIQIKESLRAELRVTER
notes: also called Generation 2, clone 4-12
B7: G2 4-5 (designed binder)
PD-1 variant IgV domain: B6 PD-1 variant IgV domain with Y44R, G49S, Q66P, H82Q, I100V
notes: also called Generation 2, clone 4-5

What was measured:
human PD-L1 on cells [1] = target: T2, human PD-L1 on cells (human, UniProt Q9NZQ7 19-290); test: flow cytometry of a dissociated CT26 hPD-L1 positive tumor 4 h after intraperitoneal injection of both labeled agents; same quadrant of the PD-L1 negative tumor: 3.97 [panel CT26, hPD-L1 positive]
T2 construct: also called hPD-L1; PD-L1 on IFNγ-induced SK-MEL-28 (SKMEL28) cells

human PD-L1 on cells [2] = target: T2, human PD-L1 on cells; test: competition flow cytometry on IFNγ-induced SK-MEL-28 cells, 100 nM labeled PD-1 tetramer as competitor
[3] = target: T3, recombinant biotinylated human PD-L1 ectodomain (IgV and IgC domains, residues 19-239) (human, UniProt Q9NZQ7 19-239, enzymatically biotinylated (BirA) on the biotin acceptor peptide); test: surface plasmon resonance, biotinylated hPD-L1 immobilized on a streptavidin chip; column head 'PD-L1 affinity'
T3 construct: also called biotinylated hPD-L1; biotinylated PD-L1; not shown: carboxy-terminal 8x histidine tag

[4] = target: T3, recombinant biotinylated human PD-L1 …; test: as above; remark: listed apart in the source
[5] = target: T4, mouse PD-L1 on B16-F10 cells (mouse, UniProt Q9EP73 19-290); test: competition flow cytometry on murine B16-F10 cells, 100 nM PD-1 tetramer as competitor; wild-type hPD-1 on murine B16-F10 cells
T4 construct: whole, on cells; also called mPD-L1; PD-L1 on murine B16-F10 cells

[6] = target: T1, human PD-L2 displayed on yeast …; test: competition flow cytometry on yeast displaying the ectodomain of hPD-L2, 100 nM PD-1 tetramer as competitor; wild-type PD-1 on yeast displaying hPD-L2
[7] = target: T3, recombinant biotinylated human PD-L1 …; test: SPR, biotinylated PD-L1 on streptavidin chip
[8] = target: T1, human PD-L2 displayed on yeast …; test: competition flow cytometry on yeast displaying human PD-L2; competitor probe: labeled native PD-1 streptavidin tetramer
[9] = target: T5, human PD-L1 displayed on yeast (residues 19-132) (human; S. cerevisiae, UniProt Q9NZQ7 19-132); test: competition flow cytometry on yeast displaying human PD-L1; competitor probe: labeled native PD-1 streptavidin tetramer
T5 construct: also called yeast displaying human PD-L1; not shown: Aga2 of S. cerevisiae (pYAL vector); linker and tag between not g
T5 sequence (Q9NZQ7 19-132 limits assumed): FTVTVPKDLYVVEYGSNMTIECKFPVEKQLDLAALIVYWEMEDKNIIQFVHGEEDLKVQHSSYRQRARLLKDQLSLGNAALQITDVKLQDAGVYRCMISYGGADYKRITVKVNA

T3 sequence (Q9NZQ7 other isoform, or with tags, fused parts or gaps): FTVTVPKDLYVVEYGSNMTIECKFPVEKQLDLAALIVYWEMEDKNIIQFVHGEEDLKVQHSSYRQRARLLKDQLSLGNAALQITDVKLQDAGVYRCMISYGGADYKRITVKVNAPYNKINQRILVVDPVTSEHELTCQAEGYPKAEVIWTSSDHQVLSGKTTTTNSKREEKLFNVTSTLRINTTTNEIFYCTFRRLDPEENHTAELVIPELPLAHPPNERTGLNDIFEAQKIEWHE
T2 sequence (Q9NZQ7 19-290 limits assumed): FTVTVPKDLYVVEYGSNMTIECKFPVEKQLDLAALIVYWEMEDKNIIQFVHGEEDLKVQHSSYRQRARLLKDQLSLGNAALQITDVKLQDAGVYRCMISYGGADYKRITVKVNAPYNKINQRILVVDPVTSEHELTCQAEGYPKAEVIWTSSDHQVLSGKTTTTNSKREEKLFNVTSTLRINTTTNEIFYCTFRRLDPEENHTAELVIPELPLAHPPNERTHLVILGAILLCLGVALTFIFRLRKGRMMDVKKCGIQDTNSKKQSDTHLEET
T4 sequence (Q9EP73 19-290): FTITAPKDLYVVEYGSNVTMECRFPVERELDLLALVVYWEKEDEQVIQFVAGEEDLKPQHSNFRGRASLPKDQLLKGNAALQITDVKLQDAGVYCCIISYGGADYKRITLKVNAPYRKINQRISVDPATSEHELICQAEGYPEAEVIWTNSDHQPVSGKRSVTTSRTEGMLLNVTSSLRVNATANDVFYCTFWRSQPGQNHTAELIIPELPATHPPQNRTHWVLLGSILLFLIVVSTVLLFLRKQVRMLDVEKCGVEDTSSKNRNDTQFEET

Molecule | Kd [3] | Kd [4] | further results
AlexaFluor 488-conjugated anti-hPD-L1 antibody (clone 29E.2A3, BioLegend) | – | – | percent of cells in the quadrant HAC 594 negative, Anti-hPD-L1 488 positive (human PD-L1 on cells [1]): 2.22%
B1 | 3880 nM | 3880 nM | IC50 (human PD-L1 on cells [2]): 8200 nM; IC50 [5]: 2600 nM; IC50 [6]: 2500 nM; dissociation half-life [7]: < 1 s
B2 | 0.267 nM | 0.267 nM | binding result [8]: no binding (tested: 1e-6 M (Log[Inhibitor (M)] = -6))
B3 | 0.222 nM | 0.222 nM | binding result [8]: no binding (tested: 1e-6 M (Log[Inhibitor (M)] = -6))
B4 | 7.78 nM | 7.78 nM | IC50 (read off the curve) [9]: ~100 nM
B5 | 10.7 nM | 10.7 nM | IC50 (read off the curve) [9]: ~100 nM
B6 | 0.218 nM | 0.218 nM | –
B7 | 0.196 nM | 0.196 nM | –
